The text below walks through data of patent US20210363257A1 (Pieris, published 2021).

Experiment [1] deals with T1, huPD-L1-His (human PD-L1 with a C-terminal polyhistidine tag) (human, UniProt Q9NZQ7 19-239).
T1 construct: Bought; also called biotinylated huPD-L1-His
The experiment can be described thus: SPR (Biacore), binder captured by anti-human IgG Fc, huPD-L1-His in solution, 25 C, 1:1 model. The procedure: (§1) The binding kinetics and affinity of exemplary fusion proteins to huPD-L1-His or huCD137-His (human PD-L1 or human CD137 with a C-terminal polyhistidine tag, R&D Systems) were determined by surface plasmon resonance (SPR) using a Biacore 8K or a Biacore T200 (GE Healthcare).
(§2) The anti-human IgG Fc antibody (GE Healthcare) was immobilized on a CM5 sensor chip using standard amine chemistry: the carboxyl groups on the chip were activated using 1-ethyl-3-(3-dimethylaminopropyl)-carbodiimide (EDC) and N-hydroxysuccinimide (NHS). Subsequently, anti-human IgG Fc antibody solution (GE Healthcare) at a concentration of 25 μg/mL in 10 mM sodium acetate (pH 5.0) was applied at a flow rate of 5 μL/min until an immobilization level of 6000-10000 resonance units (RU) was achieved. Residual non-reacted NHS-esters were blocked by passing a solution of 1M ethanolamine across the surface. The reference channel was treated in an analogous manner. […] After each capture step, the needle was washed.
(§3) Double referencing was used and the 1:1 binding model was used to fit the raw data.
In general terms: SPR reads the build-up and loss of mass on a sensor chip optically.

For experiment [2], the target named is T2, human PD-L1 expressed on cells (human, UniProt Q9NZQ7 19-290).
T2 construct: whole, on cells; also called Flp-In-CHO::huPDL-1; RKO cells
T2 sequence (Q9NZQ7 19-290): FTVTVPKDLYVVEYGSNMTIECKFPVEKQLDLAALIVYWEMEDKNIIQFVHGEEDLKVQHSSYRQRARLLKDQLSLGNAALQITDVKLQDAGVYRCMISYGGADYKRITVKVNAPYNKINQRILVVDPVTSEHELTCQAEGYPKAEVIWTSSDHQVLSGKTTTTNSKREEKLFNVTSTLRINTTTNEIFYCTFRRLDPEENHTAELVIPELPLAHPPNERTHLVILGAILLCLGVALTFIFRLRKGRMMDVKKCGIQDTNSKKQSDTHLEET
The experiment can be described thus: flow cytometry, RKO tumor cells (PD-L1-positive). Here is the method: (§4) 5×10⁴ cells per well were incubated for 1 h in ice-cold PBS containing 5% fetal calf serum (PBS-FCS). A dilution series of the fusion proteins and control antibodies were added to the cells and incubated for 1 h on ice. Cells were washed twice with PBS and then incubated with a goat anti-hIgG Alexa647-labeled antibody for 30 min on ice. Cells were subsequently washed and analyzed using iQue Flow cytometer (Intellicyte Screener). Mean geometric fluorescent signals were plotted and fitted with Graphpad software using nonlinear regression (shared bottom, SLOPE=1).
For flow cytometric analysis, RKO cells were incubated with fusion proteins and detected using a fluorescently labeled anti-human IgG antibody as described in Example 6.
(In general: In flow cytometry, cells or beads pass a laser one at a time.)

Experiment [3] addresses T2, human PD-L1 expressed on cells. The experiment is described as follows: flow cytometry, Flp-In-CHO::huPDL-1 cells. The procedure: (§5) The geometric means of the fluorescence intensity were used to calculate EC₅₀ values using nonlinear regression (shared bottom, SLOPE=1).
as §4

Experiment [4] has as its target T3, huPD-L1-Fc (recombinant human PD-L1 Fc fusion) (human, UniProt Q9NZQ7 19-239).
T3 construct: Bought; also called tracer huPD-L1-Fc
The experiment can be described thus: competitive ELISA, huPD-1-His coated, 15 nM huPD-L1-Fc tracer, binder titrated. The procedure:
Recombinant huPD-1-His (Acrobiosystems) in PBS (1 μg/mL) was coated overnight on microtiter plates at 4° C. The plates were washed five times after each incubation step with 100 μL PBS-0.05% T (PBS supplemented with 0.05% (v/v) Tween 20). The plates were blocked with 2% BSA (w/v) in PBS-0.1% T (PBS supplemented with 0.1% (v/v) Tween 20) for 1 h at room temperature and subsequently washed again. […] The mixtures of fusion proteins and the tracer were added to the plates and incubated for 20 min at room temperature following by five washing steps with 100 μL PBS-0.05% T. Subsequently, a 1:5000 dilution of goat-anti human IgG-Fc HRP (Jackson) was added to the wells and incubated for 1 h. After an additional wash step, fluorogenic HRP substrate (QuantaBlu, Thermo) was added to each well, and the fluorescence intensity was detected using a fluorescence microplate reader.

Experiment [5] has as its target T1, huPD-L1-His (human PD-L1 with a …). The experiment can be described thus: ELISA, huPD-L1-His coated, detection anti-human IgG Fc-HRP. Here is the method: (§6) Recombinant huPD-L1-His or cyPD-L1-His (human or cynomolgus PD-L1 with a C-terminal polyhistidine tag, R&D Systems or Sino Biologics) at the concentration of 1 μg/mL in PBS was coated overnight on microtiter plates at 4° C. After washing with PBS-0.05% T (PBS supplemented with 0.05% (v/v) Tween 20), the plates were blocked with 2% BSA (w/v) in PBS-0.1% T (PBS supplemented with 0.1% (v/v) Tween 20) for 1 h at room temperature. […] Bound molecules under study were detected by incubation with 1:5000 diluted anti-human IgG Fc-HRP (Jackson Laboratory) in PBS-0.1% T-2% BSA. After an additional wash step, fluorogenic HRP substrate (QuantaBlu, Thermo) was added to each well and the fluorescence intensity was detected using a fluorescence microplate reader.
(In general: ELISA stands for enzyme-linked immunosorbent assay.)

For experiment [6], the target named is T4, cyPD-L1-His (cynomolgus PD-L1 with a C-terminal polyhistidine tag) (cynomolgus).
T4 construct: Bought
The experiment can be described thus: ELISA, cyPD-L1-His coated, detection anti-human IgG Fc-HRP. Here is the method: as §6

The target of experiment [7] is T5, cynomolgus PD-L1 expressed on cells (cynomolgus).
T5 construct: whole, on cells; also called Flp-In-CHO::cynoPDL-1
The experiment is described as follows: flow cytometry, Flp-In-CHO::cynoPDL-1 cells. The procedure:
as §5, §4

Experiment [8] has as its target T6, huCD137-His (human CD137 with a C-terminal polyhistidine tag) (human, UniProt Q07011 24-186).
T6 construct: Bought; also called huCD137-His-Bio
The experiment is described as follows: dual-binding ELISA, huCD137-His coated, binder titrated, detection with biotinylated huPD-L1-His.

The target in experiment [9] is T7, human CD137 expressed on cells (human, UniProt Q07011 24-255).
T7 construct: whole, on cells; also called Flp-In-CHO::huCD137; NFκB-luc2/CD137 Jurkat cells
T7 sequence (Q07011 24-255): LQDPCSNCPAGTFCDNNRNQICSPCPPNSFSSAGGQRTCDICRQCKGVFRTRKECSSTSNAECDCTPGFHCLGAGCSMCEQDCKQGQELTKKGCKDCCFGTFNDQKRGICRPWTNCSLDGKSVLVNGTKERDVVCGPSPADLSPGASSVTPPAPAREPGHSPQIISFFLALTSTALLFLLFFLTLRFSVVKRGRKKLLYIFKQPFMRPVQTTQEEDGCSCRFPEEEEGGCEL
The experiment can be described thus: flow cytometry, Flp-In-CHO::huCD137 cells. Here is the method:
as §5, §4

Experiment [10] has as its target T6, huCD137-His (human CD137 with a …). The experiment is described as follows: SPR (Biacore), binder captured by anti-human IgG Fc, huCD137-His in solution, 25 C, 1:1 model. Here is the method: as §1, §2, §3
Experiment [11] has the same target. The experiment can be described thus: ELISA, huCD137-His coated, detection anti-NGAL-HRP. The procedure:
as §6
(§7) The same ELISA setup was also employed to determine the binding potency of fusion proteins to CD137, where huCD137-His (human CD137 with C-terminal polyhistidine tag, R&D Systems) or cyCD137-Fc (cynomolgus CD137 C-terminally fused to Fc) was instead coated on a microtiter plate. The testing agents were similarly titrated and bound agents were detected via anti-NGAL-HRP.

Experiment [12] concerns the target T1, huPD-L1-His (human PD-L1 with a …). The experiment is described as follows: dual-binding ELISA, huPD-L1-His coated, binder titrated, detection with biotinylated huCD137-His. Here is the method: Recombinant huPD-L1-His (R&D Systems) in PBS (1 μg/mL) was coated overnight on microtiter plates at 4° C. The plates were washed five times after each incubation step with 100 μL PBS-0.05% T. The plates were blocked with 2% BSA (w/v) in PBS-0.1% T for 1 h at room temperature and subsequently washed again. Different concentrations of tested fusion proteins were added to the wells and incubated for 1 h at room temperature, followed by a wash step. […] After washing, a 1:5000 dilution of ExtrAvidin-HRP (Sigma-Aldrich) in PBS-0.1% T-2% BSA was added to the wells and incubated for 1 h. After an additional wash step, fluorogenic HRP substrate (QuantaBlu, Thermo) was added to each well, and the fluorescence intensity was detected using a fluorescence microplate reader.

The target in experiment [13] is cyCD137-Fc (cynomolgus CD137 C-terminally fused to Fc) (cynomolgus). The experiment is described as follows: ELISA, cyCD137-Fc coated, detection anti-NGAL-HRP. Here is the method: as §6, §7
The target in experiment [14] is T7, human CD137 expressed on cells. The experiment is described as follows: cell-based or functional assay.

T6 sequence (Q07011 24-186 limits assumed): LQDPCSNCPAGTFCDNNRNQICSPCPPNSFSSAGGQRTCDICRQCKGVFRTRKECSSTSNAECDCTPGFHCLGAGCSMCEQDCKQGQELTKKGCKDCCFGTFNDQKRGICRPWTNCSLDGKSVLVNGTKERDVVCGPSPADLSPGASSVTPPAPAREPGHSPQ
T1 sequence (Q9NZQ7 19-239 limits assumed): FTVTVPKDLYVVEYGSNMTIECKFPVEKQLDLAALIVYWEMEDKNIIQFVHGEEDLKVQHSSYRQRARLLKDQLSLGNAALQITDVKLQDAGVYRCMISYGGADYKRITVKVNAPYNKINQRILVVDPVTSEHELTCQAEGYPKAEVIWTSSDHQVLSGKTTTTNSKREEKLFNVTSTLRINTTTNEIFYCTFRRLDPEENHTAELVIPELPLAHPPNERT
T3 sequence (Q9NZQ7 19-239 limits assumed): as above

B1: PD-L1 antibody SEQ ID NOs: 86 and 87 (building block of the fusion proteins) (antibody, human IgG4 S228P, kappa, F234A L235A, V domains shown)
VH: QVQLQESGPGLVKPSETLSITCTVSGFSLSNYDISWIRQPPGKGLEWLGVIWTGGATNYNPALKSRLTISRDNSKNQVSLKMSSVTAADTAVYYCVRDSNYRYDEPFTYWGQGTLVTVSS
VL: EIVLTQSPDTLSVTPKEKVTLTCRASQSIGTNIHWFQQKPGQSPKLLIKYASESISGVPSRFSGSGSGTDFTLTINSVEAEDAATYYCQQSNSWPYTFGQGTKLEIKR
B1 displayed a Kd in experiment [1] of 0.593 nM. The same molecule yielded a koff in experiment [1] of 0.000649 s⁻¹. In addition, in experiment [1], the kon worked out at 1.09e+06 M⁻¹ s⁻¹. Besides, the EC50 in [2] was 0.32 nM; in experiment [3], 2.96 nM; in experiment [5] it was 0.12 nM; in experiment [6], 0.1 nM; in experiment [7], 3.55 nM. Also, the IC50 in [4] is 3.5 nM.

B2: fusion protein SEQ ID NOs: 86 and 93 (bispecific antibody, human IgG4 S228P, kappa, F234A L235A)
heavy: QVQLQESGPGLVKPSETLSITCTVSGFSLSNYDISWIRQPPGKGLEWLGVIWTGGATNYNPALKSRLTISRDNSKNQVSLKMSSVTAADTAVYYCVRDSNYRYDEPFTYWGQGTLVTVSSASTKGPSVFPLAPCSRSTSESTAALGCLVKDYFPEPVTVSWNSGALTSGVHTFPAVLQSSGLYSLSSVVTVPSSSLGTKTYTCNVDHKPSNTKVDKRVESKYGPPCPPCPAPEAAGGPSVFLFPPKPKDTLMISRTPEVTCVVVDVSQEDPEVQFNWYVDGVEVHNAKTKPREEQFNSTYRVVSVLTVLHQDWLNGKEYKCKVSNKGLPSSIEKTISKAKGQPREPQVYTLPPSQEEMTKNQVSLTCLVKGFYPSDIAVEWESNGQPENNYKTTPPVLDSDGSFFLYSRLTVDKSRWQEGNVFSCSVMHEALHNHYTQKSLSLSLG
light: QDSTSDLIPAPPLSKVPLQQNFQDNQFHGKWYVVGQAGNIRLREDKDPIKMMATIYELKEDKSYDVTMVKFDDKKCMYDIWTFVPGSQPGEFTLGKIKSFPGHTSSLVRVVSTNYNQHAMVFFKFVFQNREEFYITLYGRTKELTSELKENFIRFSKSLGLPENHIVFPVPIDQCIDGGGGGSGGGGSGGGGSEIVLTQSPDTLSVTPKEKVTLTCRASQSIGTNIHWFQQKPGQSPKLLIKYASESISGVPSRFSGSGSGTDFTLTINSVEAEDAATYYCQQSNSWPYTFGQGTKLEIKRTVAAPSVFIFPPSDEQLKSGTASVVCLLNNFYPREAKVQWKVDNALQSGNSQESVTEQDSKDSTYSLSSTLTLSKADYEKHKVYACEVTHQGLSSPVTKSFNRGEC
notes: Antibody-lipocalin mutein fusion, IgG4 S228P backbone; Bivalent to CD137
As for B2, the Kd in experiment [1] turned out to be 1.38 nM; in experiment [10] it was 3.55 nM. Also, the figures for the koff in experiment [1] and in [10] were 0.000754 s⁻¹ and 0.00013 s⁻¹, respectively. The kon in [1] turned out to be 546000 M⁻¹ s⁻¹; in experiment [10], 36800 M⁻¹ s⁻¹. Further, the EC50 in experiment [2] came out at 1.38 nM; in [8], 6.7 nM; in experiment [3], 4.63 nM; in experiment [9] it was 12.7 nM; in experiment [5], 0.19 nM; in [11], 0.35 nM. The EC50 amounted to 0.17 nM in [6], 2.03 nM in [7], 0.74 nM in experiment [12] and 8.1 nM in experiment [13]. For the same molecule, the IC50 in experiment [4] was determined as 3.2 nM. Moreover, in experiment [14], the “EC50 [nM] With RKO cells (CD137 Bioassay, NFκB-luc2/CD137 Jurkat luminescence)” value (“EC50 [nM] With RKO cells” below) was 0.264 nM.

B3: fusion protein SEQ ID NOs: 92 and 87 (bispecific antibody, human IgG4 S228P, kappa, F234A L235A)
heavy: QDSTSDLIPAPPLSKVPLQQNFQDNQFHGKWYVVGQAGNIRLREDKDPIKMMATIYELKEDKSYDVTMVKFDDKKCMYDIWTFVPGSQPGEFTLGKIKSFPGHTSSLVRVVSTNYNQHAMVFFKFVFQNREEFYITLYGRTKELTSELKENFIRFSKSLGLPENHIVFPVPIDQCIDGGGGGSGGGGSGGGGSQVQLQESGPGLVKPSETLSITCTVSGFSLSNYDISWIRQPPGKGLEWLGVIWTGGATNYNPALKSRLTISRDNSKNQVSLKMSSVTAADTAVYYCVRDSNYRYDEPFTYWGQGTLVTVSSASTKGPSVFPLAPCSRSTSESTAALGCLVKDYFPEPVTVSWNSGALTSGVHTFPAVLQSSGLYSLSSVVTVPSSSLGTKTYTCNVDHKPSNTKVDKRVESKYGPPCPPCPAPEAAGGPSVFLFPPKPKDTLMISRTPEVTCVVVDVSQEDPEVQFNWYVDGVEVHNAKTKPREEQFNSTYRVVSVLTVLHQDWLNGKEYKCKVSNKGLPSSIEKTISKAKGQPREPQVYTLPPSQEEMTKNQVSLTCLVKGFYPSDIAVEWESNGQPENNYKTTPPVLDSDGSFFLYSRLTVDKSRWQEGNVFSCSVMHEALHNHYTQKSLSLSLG
light: EIVLTQSPDTLSVTPKEKVTLTCRASQSIGTNIHWFQQKPGQSPKLLIKYASESISGVPSRFSGSGSGTDFTLTINSVEAEDAATYYCQQSNSWPYTFGQGTKLEIKRTVAAPSVFIFPPSDEQLKSGTASVVCLLNNFYPREAKVQWKVDNALQSGNSQESVTEQDSKDSTYSLSSTLTLSKADYEKHKVYACEVTHQGLSSPVTKSFNRGEC
notes: as for B2
On to B3, for which the Kd in experiment [1] was 1.02 nM; in [10] it was 5.97 nM. In addition, the koff in experiment [1] amounted to 0.000803 s⁻¹; in experiment [10], 0.000208 s⁻¹. Moreover, the association rate constant (kon) in experiment [1] is 787000 M⁻¹ s⁻¹; in [10] it was 34800 M⁻¹ s⁻¹. Also, the EC50 stood at 1 nM in experiment [2]; 7.2 nM in experiment [8]; 2.95 nM in experiment [3]; 11.9 nM in experiment [9]; 0.16 nM in experiment [5]; 0.41 nM in [11]. The EC50 in experiment [6] was determined as 0.15 nM; in experiment [7], 2.03 nM; in experiment [12] it was 1.2 nM; in experiment [13], 9.8 nM. The IC50 in [4] turned out to be 3.4 nM. In addition, the “EC50 [nM] With RKO cells” value in experiment [14] stood at 0.181 nM.

B4: reference CD137 antibody SEQ ID NOs: 28 and 29 (antibody, human IgG4 S228P, kappa, V domains shown)
VH: QVQLQQWGAGLLKPSETLSLTCAVYGGSFSGYYWSWIRQSPEKGLEWIGEINHGGYVTYNPSLESRVTISVDTSKNQFSLKLSSVTAADTAVYYCARDYGPGNYDWYFDLWGRGTLVTVSS
VL: EIVLTQSPATLSLSPGERATLSCRASQSVSSYLAWYQQKPGQAPRLLIYDASNRATGIPARFSGSGSGTDFTLTISSLEPEDFAVYYCQQRSNWPPALTFGGGTKVEIKR
notes: also called anti-CD137 benchmark antibody
In the case of B4, the EC50 in experiment [9] was 1.31 nM. Besides, the Kd in experiment [10] was determined as 6.24 nM. Also, the “EC50 [nM] With RKO cells” value in [14] is 0.814 nM.

As a reminder, the Kd is the equilibrium constant for the complex coming apart. One may read the koff as a measure of how fast the partners let go of each other. By kon is commonly meant the rate constant with which the complex forms. The low end stands for slow association, the high end for fast association. One may read the EC50 as the concentration needed to bring the measured effect to its halfway point. The term IC50 denotes the concentration that gives 50% inhibition.
